Experimental data: article PMC2847587

What was measured:
Test in all cases: immunodepletion
[1] = target: FAAP24 (human (endogenous in HeLa)) (UniProt Q9BTP7)
[2] = target: MHF1 (FANCM-associated Histone Fold protein 1) (human (endogenous in HeLa)) (UniProt Q8N2Z9)
[3] = target: MHF2 (FANCM-associated Histone Fold protein 2) (human (endogenous in HeLa)) (UniProt A8MT69); details: remark: other sources report otherwise
[4] = target: FANCA (human (endogenous in HeLa)) (UniProt O15360)
Sequence of FANCA (human (endogenous in HeLa)) (O15360 whole entry): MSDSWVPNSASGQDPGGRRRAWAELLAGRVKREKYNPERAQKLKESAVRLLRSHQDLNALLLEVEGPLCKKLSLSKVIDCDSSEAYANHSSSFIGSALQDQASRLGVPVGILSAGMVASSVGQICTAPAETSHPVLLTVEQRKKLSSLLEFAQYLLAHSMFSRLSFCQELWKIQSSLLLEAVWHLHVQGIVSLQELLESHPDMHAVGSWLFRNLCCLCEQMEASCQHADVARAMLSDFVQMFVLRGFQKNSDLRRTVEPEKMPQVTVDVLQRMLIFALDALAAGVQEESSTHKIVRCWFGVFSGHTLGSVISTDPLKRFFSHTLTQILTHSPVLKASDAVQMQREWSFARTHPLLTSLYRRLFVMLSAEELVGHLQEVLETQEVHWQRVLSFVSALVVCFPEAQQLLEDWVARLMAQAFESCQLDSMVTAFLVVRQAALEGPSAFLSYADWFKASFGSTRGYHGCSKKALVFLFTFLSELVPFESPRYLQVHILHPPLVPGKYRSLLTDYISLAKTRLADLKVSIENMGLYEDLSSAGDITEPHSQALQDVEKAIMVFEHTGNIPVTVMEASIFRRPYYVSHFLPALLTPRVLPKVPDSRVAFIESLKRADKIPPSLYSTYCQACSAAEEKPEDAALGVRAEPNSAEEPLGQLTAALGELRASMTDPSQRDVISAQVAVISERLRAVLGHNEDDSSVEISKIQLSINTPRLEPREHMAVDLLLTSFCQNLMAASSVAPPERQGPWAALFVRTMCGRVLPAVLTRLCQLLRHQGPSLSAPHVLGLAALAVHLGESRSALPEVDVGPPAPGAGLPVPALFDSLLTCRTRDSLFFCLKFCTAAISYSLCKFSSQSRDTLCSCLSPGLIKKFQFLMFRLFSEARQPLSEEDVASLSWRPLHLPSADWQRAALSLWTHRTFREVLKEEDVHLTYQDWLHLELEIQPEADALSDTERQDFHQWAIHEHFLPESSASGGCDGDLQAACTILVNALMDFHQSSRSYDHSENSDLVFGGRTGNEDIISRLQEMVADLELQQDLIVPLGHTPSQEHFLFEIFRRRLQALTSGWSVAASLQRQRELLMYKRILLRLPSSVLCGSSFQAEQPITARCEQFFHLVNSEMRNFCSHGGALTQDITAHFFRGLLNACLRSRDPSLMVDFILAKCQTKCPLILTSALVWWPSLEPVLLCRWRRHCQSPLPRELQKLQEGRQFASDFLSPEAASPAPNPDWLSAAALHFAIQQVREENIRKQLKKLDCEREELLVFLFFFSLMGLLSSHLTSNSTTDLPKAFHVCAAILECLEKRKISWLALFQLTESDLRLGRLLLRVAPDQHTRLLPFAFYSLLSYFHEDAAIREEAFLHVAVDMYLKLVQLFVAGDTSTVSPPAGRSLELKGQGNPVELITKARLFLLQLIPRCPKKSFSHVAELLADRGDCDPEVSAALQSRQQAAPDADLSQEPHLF

Sequence of MHF1 (FANCM-associated Histone Fold protein 1) (human (endogenous in HeLa)) (Q8N2Z9 whole entry): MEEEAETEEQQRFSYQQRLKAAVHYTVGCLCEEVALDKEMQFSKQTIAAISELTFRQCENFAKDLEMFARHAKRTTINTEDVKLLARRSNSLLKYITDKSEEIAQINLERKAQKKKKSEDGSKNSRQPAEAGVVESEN
Sequence of FAAP24 (human (endogenous in HeLa)) (Q9BTP7 whole entry): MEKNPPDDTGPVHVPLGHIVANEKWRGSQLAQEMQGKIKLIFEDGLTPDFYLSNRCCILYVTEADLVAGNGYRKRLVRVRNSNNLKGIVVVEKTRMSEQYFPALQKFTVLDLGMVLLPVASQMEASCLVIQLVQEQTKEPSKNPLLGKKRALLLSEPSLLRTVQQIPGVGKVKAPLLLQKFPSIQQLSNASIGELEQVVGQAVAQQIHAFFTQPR
Sequence of MHF2 (FANCM-associated Histone Fold protein 2) (human (endogenous in HeLa)) (A8MT69 whole entry): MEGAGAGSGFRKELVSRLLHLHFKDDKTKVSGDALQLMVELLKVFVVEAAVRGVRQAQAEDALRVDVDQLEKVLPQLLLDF

FANCM, Q8IYD8 1-2048
percent co-depleted [1]: 70%
percent co-depleted [2]: 85%
percent co-depleted [3]: 85%
percent co-depleted [4]: < 30%
